Reference: article PMC10926635, “Membrane-associated RING-CH 7 inhibits stem-like capacities of bladder cancer cells by interacting with nucleotide-binding oligomerization domain containing 1” (Cell & Bioscience, 2024)

Biological target: T1, HA-NOD1, purified protein (UniProt Q9Y239-1 1-953)
T1 construct: also called purified NOD1 protein; source: purified by Hangzhou Jingjie Biotechnology Co., Ltd
T1 sequence (looked up): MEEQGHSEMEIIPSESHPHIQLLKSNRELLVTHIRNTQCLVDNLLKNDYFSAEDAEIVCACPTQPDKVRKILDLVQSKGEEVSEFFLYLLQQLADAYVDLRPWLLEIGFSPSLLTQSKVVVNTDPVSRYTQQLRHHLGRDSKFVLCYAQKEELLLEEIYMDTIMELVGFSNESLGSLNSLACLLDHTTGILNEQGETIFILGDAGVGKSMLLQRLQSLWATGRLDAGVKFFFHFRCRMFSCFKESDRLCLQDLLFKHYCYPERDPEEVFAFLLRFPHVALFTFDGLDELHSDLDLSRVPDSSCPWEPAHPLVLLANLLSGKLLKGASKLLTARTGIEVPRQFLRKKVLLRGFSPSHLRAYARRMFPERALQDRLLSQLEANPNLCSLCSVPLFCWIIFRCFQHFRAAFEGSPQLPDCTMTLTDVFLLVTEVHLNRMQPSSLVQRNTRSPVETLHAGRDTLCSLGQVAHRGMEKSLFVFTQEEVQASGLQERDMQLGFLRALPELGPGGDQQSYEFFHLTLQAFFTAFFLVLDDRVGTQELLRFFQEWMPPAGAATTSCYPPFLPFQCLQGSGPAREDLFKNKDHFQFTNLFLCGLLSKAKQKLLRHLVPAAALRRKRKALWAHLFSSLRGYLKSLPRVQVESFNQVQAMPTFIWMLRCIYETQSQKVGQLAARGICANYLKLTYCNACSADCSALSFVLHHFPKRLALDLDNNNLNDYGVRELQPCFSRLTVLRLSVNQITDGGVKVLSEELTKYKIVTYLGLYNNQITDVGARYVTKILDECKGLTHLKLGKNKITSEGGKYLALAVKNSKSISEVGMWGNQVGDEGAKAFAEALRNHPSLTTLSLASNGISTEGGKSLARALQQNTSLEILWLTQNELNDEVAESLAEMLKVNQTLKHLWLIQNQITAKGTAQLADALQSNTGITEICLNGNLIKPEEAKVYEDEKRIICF
Test: co-IP; purified Flag-MARCH7 and HA-NOD1 proteins mixed; co-IP as for the cell lysates
Settings: both partners purified

binding result: binds
B1: Flag-MARCH7-WT, purified protein (enzyme, UniProt Q9H992-1 1-704, looked up)
chain: MESKPSRIPRRISVQPSSSLSARMMSGSRGSSLNDTYHSRDSSFRLDSEYQSTSASASASPFQSAWYSESEITQGARSRSQNQQRDHDSKRPKLSCTNCTTSAGRNVGNGLNTLSDSSWRHSQVPRSSSMVLGSFGTDLMRERRDLERRTDSSISNLMDYSHRSGDFTTSSYVQDRVPSYSQGARPKENSMSTLQLNTSSTNHQLPSEHQTILSSRDSRNSLRSNFSSRESESSRSNTQPGFSYSSSRDEAPIISNSERVVSSQRPFQESSDNEGRRTTRRLLSRIASSMSSTFFSRRSSQDSLNTRSLNSENSYVSPRILTASQSRSNVPSASEVPDNRASEASQGFRFLRRRWGLSSLSHNHSSESDSENFNQESEGRNTGPWLSSSLRNRCTPLFSRRRREGRDESSRIPTSDTSSRSHIFRRESNEVVHLEAQNDPLGAAANRPQASAASSSATTGGSTSDSAQGGRNTGISGILPGSLFRFAVPPALGSNLTDNVMITVDIIPSGWNSADGKSDKTKSAPSRDPERLQKIKESLLLEDSEEEEGDLCRICQMAAASSSNLLIEPCKCTGSLQYVHQDCMKKWLQAKINSGSSLEAVTTCELCKEKLELNLEDFDIHELHRAHANEQAEYEFISSGLYLVVLLHLCEQSFSDMMGNTNEPSTRVRFINLARTLQAHMEDLETSEDDSEEDGDHNRTFDIA
notes: Membrane-associated RING-CH 7 (MARCH7); also called purified MARCH7 protein; source: purified by Hangzhou Jingjie Biotechnology Co., Ltd
